Consider twelve molecules from PMC9881146.

For series [1], the target named is Cdc13 OB1 domain (Strep-TEV-Strep-OB1, residues 1-176) (C. glabrata). Nature of the series: AUC.
The target in series [2] is Cdc13 OB1 domain without its C-terminal tail (OB1 ΔC-ter) (C. glabrata). Description: AUC.
The target in series [3] is Cdc13 OB2 domain (Strep-TEV-Strep-OB2, residues 260-396) (C. glabrata). Nature of the series: SEC.
Series [4] deals with Cdc13_(OB23) (H10-TEV-Cdc13_(OB23)) (C. glabrata). Nature of the series: AUC.
The target is the same in series [5]. Nature of the series: mass photometry.
The target is the same in series [6]. Description: SEC. (In general: SEC sorts molecules by how far they enter the pores of the column.)
In series [7] the target is Cdc13_(OB24) (H10-TEV-Cdc13_(OB24)) (C. glabrata). Nature of the series: AUC.
For series [8] the target is unchanged. Nature of the series: mass photometry.
Series [9] has the same target. Nature of the series: SEC.
Series [10] deals with Cdc13_(OB234), purified, large tag removed (C. glabrata). Description: AUC.
Series [11] addresses OB1 ΔC-ter A40W (C. glabrata). Description: AUC.
Series [12] addresses OB1 ΔC-ter A40W D94A (C. glabrata). Description: AUC.
In series [13] the target is OB1 ΔC-ter Q39A (C. glabrata). Nature of the series: AUC.
For series [14], the target named is OB1 ΔC-ter Q39A A40W (C. glabrata). Description: AUC.
For a further series, the target named is T1, Cdc13OB23 (Candida glabrata, UniProt Q6FT40 260-593).
T1 sequence: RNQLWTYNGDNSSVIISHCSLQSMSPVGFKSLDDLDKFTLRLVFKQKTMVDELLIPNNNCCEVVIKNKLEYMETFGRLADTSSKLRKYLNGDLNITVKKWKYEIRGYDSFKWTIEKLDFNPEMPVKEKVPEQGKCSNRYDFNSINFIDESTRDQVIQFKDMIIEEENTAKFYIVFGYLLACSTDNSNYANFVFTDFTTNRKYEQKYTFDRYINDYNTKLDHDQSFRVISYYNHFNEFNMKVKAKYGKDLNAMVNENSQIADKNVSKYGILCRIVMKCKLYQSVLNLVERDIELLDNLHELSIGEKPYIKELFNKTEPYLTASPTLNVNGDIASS
Nature of the series: fluorescence polarization. A general note: Fluorescence polarisation rises when a labelled molecule tumbles more slowly, as on binding a larger partner.

In a further series the target is T2, Cdc13OB234 (Candida glabrata, UniProt Q6FT40 260-753).
T2 sequence: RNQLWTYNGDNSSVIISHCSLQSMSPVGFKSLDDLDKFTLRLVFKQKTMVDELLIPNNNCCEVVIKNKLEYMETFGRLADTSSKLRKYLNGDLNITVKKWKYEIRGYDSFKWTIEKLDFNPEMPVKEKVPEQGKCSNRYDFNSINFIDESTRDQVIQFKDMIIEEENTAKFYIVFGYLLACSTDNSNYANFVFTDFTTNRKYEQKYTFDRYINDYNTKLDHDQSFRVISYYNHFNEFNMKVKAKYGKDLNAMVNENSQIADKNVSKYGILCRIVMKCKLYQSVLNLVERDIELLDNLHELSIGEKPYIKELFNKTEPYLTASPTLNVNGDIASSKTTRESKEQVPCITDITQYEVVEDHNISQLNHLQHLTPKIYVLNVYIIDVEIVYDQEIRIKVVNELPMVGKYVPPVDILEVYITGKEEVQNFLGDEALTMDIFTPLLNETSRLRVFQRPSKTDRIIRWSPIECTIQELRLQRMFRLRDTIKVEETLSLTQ
Description: fluorescence polarization.

The target of the next series is T3, Cdc13OB34 (Candida glabrata, UniProt Q6FT40 401-753).
T3 sequence: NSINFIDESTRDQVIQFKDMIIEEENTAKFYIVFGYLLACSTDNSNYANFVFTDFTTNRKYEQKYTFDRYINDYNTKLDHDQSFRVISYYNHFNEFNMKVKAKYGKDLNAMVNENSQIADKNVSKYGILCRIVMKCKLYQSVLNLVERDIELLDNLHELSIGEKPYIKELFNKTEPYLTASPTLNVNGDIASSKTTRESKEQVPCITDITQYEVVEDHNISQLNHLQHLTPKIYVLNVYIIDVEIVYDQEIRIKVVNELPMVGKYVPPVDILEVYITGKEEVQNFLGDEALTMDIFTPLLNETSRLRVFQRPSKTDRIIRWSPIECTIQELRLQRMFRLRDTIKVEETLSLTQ
Nature of the series: fluorescence polarization.

In a further series the target is T4, OB3 (Candida glabrata, UniProt Q6FT40 401-593).
T4 sequence: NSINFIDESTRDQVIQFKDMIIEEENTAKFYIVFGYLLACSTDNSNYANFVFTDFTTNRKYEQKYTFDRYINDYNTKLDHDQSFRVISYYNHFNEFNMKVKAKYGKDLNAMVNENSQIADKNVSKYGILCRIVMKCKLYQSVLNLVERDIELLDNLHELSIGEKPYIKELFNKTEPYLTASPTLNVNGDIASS
Nature of the series: EMSA.

As for “Cdc13 OB1 domain (Strep-TEV-Strep-OB1, residues 1-176) (domain or fragment)”, in [1], the relative abundance of species 1 (monomer) came to 72%, the relative abundance of species 2 came to 4%, the relative abundance of species 3 turned out to be 3% and the relative abundance of species 4 stood at 4.5%. In addition, the relative abundance of species 5 in series [1] was found to be 2%.

In the case of “Cdc13 OB1 domain without its C-terminal tail (OB1 ΔC-ter) (domain or fragment)”, in [2], the relative abundance of species 1 was determined as 95%, the relative abundance of species 2 was determined as 4% and the relative abundance of species 3 was 1%.

For “Cdc13 OB2 domain (Strep-TEV-Strep-OB2, residues 260-396) (domain or fragment)”, in series [3], the stoichiometry N was determined as 2.

For “Cdc13_(OB23) (H10-TEV-Cdc13_(OB23)) (domain or fragment)”, the stoichiometry N in series [4], in series [5] and in [6] was 2 throughout.

In the case of “Cdc13_(OB24) (H10-TEV-Cdc13_(OB24)) (domain or fragment)”, the stoichiometry N in [7], in series [8] and in series [9] was 2 in each case.

Turning to “Cdc13_(OB234), purified, large tag removed (domain or fragment)”, the stoichiometry N in [10] came to 2.

In [11], OB1 ΔC-ter A40W (domain or fragment) had a relative abundance of species 1 of 97.9% and a relative abundance of species 2 of 2.1%.

In series [12], “OB1 ΔC-ter A40W D94A (domain or fragment)” yielded a relative abundance of species 1 of 97% and a relative abundance of species 2 of 3%.

In [13], OB1 ΔC-ter Q39A (domain or fragment) yielded a relative abundance of species 1 of 95.8%, a relative abundance of species 2 of 3.1% and a relative abundance of species 3 of 1.1%.

On to “OB1 ΔC-ter Q39A A40W (domain or fragment)”, for which, in series [14], the relative abundance of species 1 was determined as 97.8% and the relative abundance of species 2 worked out at 2.2%.

B1: 6FAM-CgTelo (ssDNA)
DNA: TGTGGGGTCTGGGTGCTGTGGGGTCTGGGTGCTGTGGGGTCTGGGTGC
Turning to B1, the Kd amounted to 28.5 ± 3.8 nM with Cdc13OB23, 13.5 ± 1.7 nM in the series with Cdc13OB234 and 299 ± 41 nM with Cdc13OB34.

B2: polyT (ssDNA)
DNA: TTTTTTTTTTTTTTTTTTTTTTTTTTTTTTTTTTTTTTTTTTTTTTTT
Regarding B2, the binding result with OB3 is recorded as “no binding”.

In general, stoichiometry N refers to a count of units in the complex or per binding partner. For orientation: Kd means the free concentration of one partner at which half of the binding sites on the other are occupied at equilibrium, for simple one-to-one binding.
